The source of these data is the nanobody polyreactivity screen of Harvey et al. (2022).

The data set in a line: yeast display, Sf9 membrane polyspecificity reagent, FACS + sequencing; frameworks hold sequencing errors. The method, boiled down:
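Polyreactivity labels are assigned by the sorting gate from which each nanobody was recovered. The gates were low and high (top ~1%), set on anti-HA fluorescence for expression and streptavidin fluorescence for reagent binding. Before sorting, galactose-induced (36–48 hours) yeast display cells were stained for 1 hour at 4 °C with 10% biotinylated, detergent-solubilized Sf9 membrane reagent.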
Turning to “QVQLVESGGGLVQAGGSLRLSCASSGSIFVHNDMGWYRQAPGKERELVARINTGGGTNYADSVKGRFTISRDNSKNTVYLQMNRLKPEDRAVYYCAAVLFVFYDEYGYWEYFSQYDYWGQGTKVTVSS”, the “polyreactivity (PSR sort gate)” value is listed as “low polyreactivity”.

Take “QVQLVESGGGLVQAGGSLRLSCASSGSILTSYAMGWYRQAPRKERELVASIDWSAGTTYYADSVKGRFTISRDNAKNTVYLQMNSLKPEDTAVYYCGKLEFLSGYPYRPEYGSWGQGTQVTVSS”: the “polyreactivity (PSR sort gate)” value is “low polyreactivity”.

For the sequence “QVQLVESGGGLVQAGGSLRLSCASSGSNVYIYAMGWYRQAPGKERELVAAISSAGSTYYADSVKGRFTISRDNAKNTVYLQMNSLKPEDTAVYYCAARAQYPGWRYNYWGQGTQVTVSS”, the “polyreactivity (PSR sort gate)” value is given as “high polyreactivity”.

“QVQLVESGGGLVQAGGSLRLSCASSGSTFHDYAMGWYRQAPGKERELVAAISNSGGSTYYADSVKGRFTISRDNAKNTVYLQMNSLKPEDTAVYYCAADGRWYWDYEYWGQGTQVTVSS”: the “polyreactivity (PSR sort gate)” value is recorded as “low polyreactivity”.

Turning to “QVQLVESGGGLVQAGGSLRLSCASSGSTFLRNAMGWYRHAPRKERELVAAFSLGSGSTYYADSVKGRFTISRDNAKNTVYLQMNSLKPEDTAVYYCAADVSRWLDYGYDYWGQGTQVTVSS”, the “polyreactivity (PSR sort gate)” value is “low polyreactivity”.

For the sequence “QVQLVESGGGLVQAGGSLRLSCASSGSTFPPYAMGWYRQAPGKERELVAAISYRDTGTYYADSVKGRFTISRDNAKNTVYFQMNSLKPEDTAVYYCAADYHIVYYFLYYYWGQGTQVTVSS”, the “polyreactivity (PSR sort gate)” value is given as “low polyreactivity”.

Regarding “QVQLVESGGGLVQAGGSLRLSCASSGSTFPSNAMGWYRQAPGKERELVAAISRSGGSTYYADSVKGRFTISRDNAKNTVYLQMNSLKPEDTAVYYCAVQVRPNYGGTRIHRGGYDYWGQGTQVTVSS”, the “polyreactivity (PSR sort gate)” value is reported as “low polyreactivity”.

Consider “QVQLVESGGGLVQAGGSLRLSCASSGSTFPVYAMGWYRQPPGKDRELVAAITSGGSTYYADSVKGRFTISRDNEKNTVSLQMNIRKPEDTAVYYCNADGYLSYAFDYWGQGTQVTVSS”, for which the “polyreactivity (PSR sort gate)” value was “low polyreactivity”.

Take “QVQLVESGGGLVQAGGSLRLSCASSGSTFVTYAMGWYRQAPGKERELVAAITEDGASTYYADSVKGRFTISRDNAKNTVYLQMNSLKPEDTAVYYCAADPTYWPVWYVLYDYWGQGTQVTVSS”: the “polyreactivity (PSR sort gate)” value is given as “low polyreactivity”.

As for “QVQLVESGGGLVQAGGSLRLSCASSGSTFYFNAMGWSRQAPGKERELVAGNSSGGSTYYADSVKGRFTISRDNAKNTVYLQMNSLKPEDTAVYYCAADSDTFYYTGYDYDYWGQGTQVTVSS”, the “polyreactivity (PSR sort gate)” value was “low polyreactivity”.

“QVQLVESGGGLVQAGGSLRLSCASSGSTFYHYAMVWYRQAPGKERELVAAISWSGGSTYYADSVKGRFTISRDNAKNTVYLQMNSLKPEDTAVYYCAARGRARQRTSFEYWGQGTQVTVSS”: the “polyreactivity (PSR sort gate)” value is recorded as “high polyreactivity”.

With “QVQLVESGGGLVQAGGSLRLSCASSGSTFYNNAMGWYRPAPGKDRELVAAISSGGGTYYADSVKGRFTISRDNAKNTVYLQMNSLKPEDTAVYYCAADFANTTHWGRIKRYDYWGQGTQVTVSS”, the “polyreactivity (PSR sort gate)” value was “low polyreactivity”.

Consider “QVQLVESGGGLVQAGGSLRLSCASSGSTFYTNAMGWYRQAPGKESEFVDAISWSGSSTYADSVKGRFTISRDNAKITVYLQMNSLKPEDTAVYYCAKATSSLYHYRYDYWGQGTQVTVSS”, for which the “polyreactivity (PSR sort gate)” value was “low polyreactivity”.

For “QVQLVESGGGLVQAGGSLRLSCASSGSTWWYAMGWYRQAPGKEMELVATISYSGGSTYYADSVKGRFTISRDNAKNSVYLQMNSLKPEDTAVYYCAAKKWTAVRRDFWGQGTQVTVSS”, the “polyreactivity (PSR sort gate)” value is listed as “high polyreactivity”.

As to “QVQLVESGGGLVQAGGSLRLSCASSGYTFYAYAMGWYRQAPGKERELVAAISGSGGNTRYADSVKGRFTISRDNAKNTVYLQMNILKPEDTAVYYCAKRIIRSPFGAYGYWGQGTQVTVSS”, the “polyreactivity (PSR sort gate)” value is recorded as “high polyreactivity”.

With “QVQLVESGGGLVQAGGSLRLSCATSGRTFWFYAMGWYRQAPGKERELVAAISSGGSTNYADSVKGRFTISRDNAKNTVYLQMNSLKPEVTAVYYCAKVGNIPYGTRYYSNRYDYWGQGTQVTVSS”, the “polyreactivity (PSR sort gate)” value is given as “low polyreactivity”.

In the case of “QVQLVESGGGLVQAGGSLRLSCAVSGFNFPYYAMGWYRQAPGKERELVAAINQRGGSTYYADSVKGRFTISRDNAKNTVYLQMNSLKPEDTAVYYCAADRHSKTYYYSYGYWGQGTQVTVSS”, the “polyreactivity (PSR sort gate)” value is given as “high polyreactivity”.

With “QVQLVESGGGLVQAGGSLRLSCDASGFIFWWYAMGWYRQAPGKEREFVAYISWSGARTYYADSVKGRFTISRDNAKNTVYLLMNSLKQEDTAVYYCNADRIGRYYQSYGGGHMDYWGQGTQVNVSS”, the “polyreactivity (PSR sort gate)” value is “high polyreactivity”.

As for “QVQLVESGGGLVQAGGSLRLSCDASGFIFYYNAMGWYRQAPGKESELVAGISWDGSTYYADSVKGRFTISRDNAKNTVYLQMNSLKPEETAVYYCAAALLDDYFDLFIFGYWGQGTQVTVSS”, the “polyreactivity (PSR sort gate)” value is “low polyreactivity”.

As to “QVQLVESGGGLVQAGGSLRLSCDASGFTFTRNAMGWYRQAPGKERELVDAISKRGGTTYYADSVKGRFTISRDYAKNTVYLQMNTLKPEDTSVYYCAKDGGITGGYWGQGTQVTVSS”, the “polyreactivity (PSR sort gate)” value is “high polyreactivity”.

For the sequence “QVQLVESGGGLVQAGGSLRLSCDASGGTFPYYAMGWYRQATGKERELVPDISGTDGSTYYADSVKGRFTISRDNANYTVYLQMNSLKPEDTAVYYCNADPHWWYWDYDYWGQGTQVTVSS”, the “polyreactivity (PSR sort gate)” value was “high polyreactivity”.

As for “QVQLVESGGGLVQAGGSLRLSCDASGITFLNYAMGWYRQAPGKERELVAAIDTRGGRTNYADSVKGRFTISRDNAKNTVYLQMNSLKPEDTAVYYCAADPFYWYRSVRGEYWGQGTQVTVSS”, the “polyreactivity (PSR sort gate)” value is “low polyreactivity”.

“QVQLVESGGGLVQAGGSLRLSCDASGITFYSYAMGWYRQAPGKEREFVAAITRGGGITSYADSVKGRFTISRDNAKNTVYLQMNSLKPEDTAVYYCAVYTYHYGRSTYYKYDYWGQGTQVTVSS”: the “polyreactivity (PSR sort gate)” value is “high polyreactivity”.

With “QVQLVESGGGLVQAGGSLRLSCDASGITVAGYAMGWYRHAPGKEWELVAAISRGGSTYYADSVKGRFTISRDNAKNTVYLQMNSLKPEDTAVYYCNTDDQQGYFTYTGWNYNYWGQGTQVSVSS”, the “polyreactivity (PSR sort gate)” value was “high polyreactivity”.

For “QVQLVESGGGLVQAGGSLRLSCDASGLIFSWYAMGWYRQPPGKERELVAAISKGGGSTYYADSVKGRFTISRDNAKITVYLQMNSLKPEDTAVYYCAAASSYGYGYWGQGTQVTVSS”, the “polyreactivity (PSR sort gate)” value is recorded as “high polyreactivity”.

Turning to “QVQLVESGGGLVQAGGSLRLSCDASGLNMYKNGMGWYRQAPGKERELVAVISRSGCRTYYADSVKGRFTISRDTAKNTVYVQMNSLKPEDTAVYYCAARQYGPRYTYYYWGQGTQVTVSS”, the “polyreactivity (PSR sort gate)” value is given as “high polyreactivity”.

Turning to “QVQLVESGGGLVQAGGSLRLSCDASGLTFAYYAMGWYRQEPGKERELVADISWNGGRTYYSDSVKGRFTISGYNAKNTVYLQMNSLKPEDSAVYYCAAQVTSSFYWGQGTQVTVSS”, the “polyreactivity (PSR sort gate)” value is listed as “high polyreactivity”.

As to “QVQLVESGGGLVQAGGSLRLSCDASGLTFTRNAMGWYRPAPGKERELVAAITSTGSTNYADSVKGRFTISRDNAKNTVYLQMNSLKPEDTAVYYCNARNAYYDDNYWGQGTQVTVSS”, the “polyreactivity (PSR sort gate)” value is “low polyreactivity”.

Consider “QVQLVESGGGLVQAGGSLRLSCDASGNTFLWYAMGWYRQAPGKERELVAAITYSGGSTYYADSVKGRFTISRDNAKITVYLQMNSLKPEDTARYYCNADYFGYDYVEYGYWGQGTQVTVSS”, for which the “polyreactivity (PSR sort gate)” value is on record as “low polyreactivity”.

Take “QVQLVESGGGLVQAGGSLRLSCDASGPIFAWNGMGWYRPAPGKERELVAVITSGGNTNYADSVKGRFTFSLDNAKNTVFIQMNSLKPEDTAVYDCATKGYAKRTRFWSHYDYWGQGTQVNVSS”: the “polyreactivity (PSR sort gate)” value is “high polyreactivity”.
